In publication PMC10576128:
Like-named read-outs stand apart in the source and are kept apart here.

B1: prothymosin α (unlabeled) (natural protein)
chain: MSDAAVDTSSEITTKDLKEKKEVVEEAENGRDAPANGNAENEENGEQEADNEVDEEEEEGGEEEEEEEEGDGEEEDGDEDEEAESATGKRAAEDDEDDDVDTKKQKTDEDD

Key:
[1] = target: ProTα E56C/D110C labeled with Alexa Fluors 488 and 594 (human) (UniProt P06454); assay: FRET or BRET
[2] = target: ProTα-H1 dimer (PH) of labeled ProTα E56C/D110C and unlabeled H1 (human) (UniProt P06454); assay: FRET or BRET
[3] = target: prothymosin α (unlabeled) (human) (UniProt P06454); assay: ITC
[4] = target: ProTα E56C/D110C labeled with Alexa Fluors 488 and 594 (human) (UniProt P06454); assay: FRET or BRET; remark: listed apart in the source
[5] = target: ProTα-H1 dimer (PH) of labeled ProTα E56C/D110C and unlabeled H1 (human) (UniProt P06454); assay: FRET or BRET; remark: listed apart in the source
[6] = target: prothymosin α (unlabeled) (human) (UniProt P06454); assay: ITC; remark: listed apart in the source
[7] = target: ProTα-H1 dimer (PH) of unlabeled ProTα and unlabeled H1 (human) (UniProt P06454); assay: FRET or BRET

| Molecule | Kd [1] [nM] | Kd [2] [nM] | dH [3] [kcal/mol] | Kd [4] [nM] | Kd [5] [nM] | dH [6] [kcal/mol] | Kd [7] [nM] |
| --- | --- | --- | --- | --- | --- | --- | --- |
| linker histone H1 (from UniProt P07305 1-194) (natural protein) | 1.2 | 13000 | 8.37 | 0.92 | 120 | 13.9 |  |
| B1 |  |  |  |  |  |  | 3000 |
